Data from patent US20220259322A1.

Columns and labels:
[1] = target: 78-kDa glucose-regulated protein (GRP78) (UniProt P11021); experiment: flow cytometry, irradiated A549 cells, gMFI minus secondary only, one site-specific binding fit
[2] = target: 78-kDa glucose-regulated protein (GRP78) (UniProt P11021); experiment: flow cytometry, irradiated A549 cells, % of positive cells, 4PL fit
[3] = target: recombinant GRP78 full length protein (UniProt P11021); experiment: Biacore, recombinant full length GRP78, scFv1171-Fc from 500 nM in two-fold dilutions
[4] = target: recombinant GRP78 full length protein (UniProt P11021); experiment: Biacore, recombinant full length GRP78, scFv1183-Fc from 500 nM in two-fold dilutions

recombinant GRP78 full length protein, sequence (P11021 19-654 limits assumed): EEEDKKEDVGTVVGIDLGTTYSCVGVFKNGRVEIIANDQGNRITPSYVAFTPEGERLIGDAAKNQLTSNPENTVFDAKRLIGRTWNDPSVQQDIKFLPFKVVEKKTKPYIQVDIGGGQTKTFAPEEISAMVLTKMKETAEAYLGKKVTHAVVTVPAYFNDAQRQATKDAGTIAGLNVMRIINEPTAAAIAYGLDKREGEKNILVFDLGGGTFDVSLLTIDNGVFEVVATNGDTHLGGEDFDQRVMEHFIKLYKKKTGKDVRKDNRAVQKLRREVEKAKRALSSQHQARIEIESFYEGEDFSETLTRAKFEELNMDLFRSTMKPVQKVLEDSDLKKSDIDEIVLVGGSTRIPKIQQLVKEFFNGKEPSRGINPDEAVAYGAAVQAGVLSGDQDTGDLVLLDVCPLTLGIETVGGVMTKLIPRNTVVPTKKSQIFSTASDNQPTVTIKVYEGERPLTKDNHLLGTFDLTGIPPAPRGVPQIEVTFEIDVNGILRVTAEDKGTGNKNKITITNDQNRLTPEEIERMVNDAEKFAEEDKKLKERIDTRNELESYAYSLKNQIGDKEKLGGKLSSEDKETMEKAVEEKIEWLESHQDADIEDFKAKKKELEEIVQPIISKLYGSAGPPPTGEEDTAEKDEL
78-kDa glucose-regulated protein (GRP78), sequence (P11021 19-654 limits assumed): as above

Kd [1] [nM]	EC50 [2] [nM]	Kd [3] [nM]	koff [3] [s⁻¹]	kon [3] [M⁻¹ s⁻¹]	Kd [4] [nM]	koff [4] [s⁻¹]	kon [4] [M⁻¹ s⁻¹]	Binder
18.7	16.8	4.77	0.00324	679000	–	–	–	anti-GRP78 scFv-Fc 1171 (Fc fusion, part only; not given: Linker, domain order, Fc, not shown: another chain or arm of the molecule; a dimerising Fc or GST; small tags and cut ends) VH: QVQLVQSGAEVKKPGSSVKVSCKSSGGTFSNPVISWVRQAPGQGLEWMGGIITMFGTTYYGNSVRGRFIVSRDNSKNMLFLQMNSLRAEDTAVYYCAKDPPMFDYWGQGTLVTVS VL: DIQLTQSPSSLSASVGDRVTITCRASQSISSYLNWYQQKPGKAPKLLIYDASNLETGVPSRFSGSGSGTDFTFTISSLQPEDIATYYCQQYDNLLALTFGGGTKVDIK
–	–	–	–	–	8.4	0.00793	944000	anti-GRP78 scFv-Fc 1183 (Fc fusion, part only; not given: Linker, domain order, Fc, not shown: another chain or arm of the molecule; a dimerising Fc or GST; small tags and cut ends) VH: QMQLVQSGAEVKKPGSSVKVSCKASGGTFSSYAISWVRQAPGQGLEWMGWISAYNGNTNYAQKLQGRVTMTTDTSTSTAYMELRSLRSDDTAVYYCARDPPLRYFDWFRGSDWFDPWGQGTLVTVS VL: NFMLTQPHSVSESPGKTVTISCTRSSGSIASNYVQWYQQRPGSSPTTVIYEDNQRPSGVPDRFSGSIDSSSNSASLTISGLKTEDEADYYCQSYDSTNGVFGGGTKLTVL
